B1: Cph1 Y176H variant of the Cph1 photosensory module (residues 1-514; NTS, nPAS, GAF and PHY domains), crystallization construct with N141R (domain or fragment, Synechocystis 6803, UniProt Q55168 1-514, looked up)
chain: MATTVQLSDQSLRQLETLAIHTAHLIQPHGLVVVLQEPDLTISQISANCTGILGRSPEDLLGRTLGEVFDSFQIDPIQSRLTAGQISSLNPSKLWARVMGDDFVIFDGVFHRNSDGLLVCELEPAYTSDNLPFLGFYHMARAALNRLRQQANLRDFYDVIVEEVRRMTGFDRVMLHRFDENNHGDVIAEDKRDDMEPYLGLHYPESDIPQPARRLFIHNPIRVIPDVYGVAVPLTPAVNPSTNRAVDLTESILRSAYHCHLTYLKNMGVGASLTISLIKDGHLWGLIACHHQTPKVIPFELRKACEFFGRVVFSNISAQEDTETFDYRVQLAEHEAVLLDKMTTAADFVEGLTNHPDRLLGLTGSQGAAICFGEKLILVGETPDEKAVQYLLQWLENREVQDVFFTSSLSQIYPDAVNFKSVASGLLAIPIARHNFLLWFRPEVLQTVNWGGDPNHAYEATQEDGKIELHPRQSFDLWKEIVRLQSLPWQSVEIQSALALKKAIVNLILRQAEE
modifications: phycocyanobilin (PCB) chromophore covalently attached to Cys259
notes: Cyanobacterial phytochrome Cph1 from Synechocystis 6803, photosensor residues 1-514 (NTS, nPAS, GAF and PHY domains), with Y176H and, for crystallization, N141R; PDB 2VEA is the wild-type parent; not shown: His6, N-terminal, cleaved

Columns and labels:
His260 = His260 (UniProt position 260, SAYHCHLTYLK); assay: not stated for the pKa value; the article cites resonance Raman, MAS NMR and absorption studies; settings: Pr (dark-adapted) state, PCB-bound holoprotein; cited from earlier work
[1] = biological target: the molecule itself; assay: crystal structure; X-ray, 3.7 Å; crystals grown in 0.3 M ammonium formate, 0.1 M HEPES pH 6.9, 18% Sokalan CP7; four protomers in the asymmetric unit

Molecule	pKa (His260)	binding result [1]
Phytochrome-like protein Cph1 (cyanobacterial phytochrome 1), photosensory module, wild type (Synechocystis sp. PCC 6803)	7.5	
B1		binds

Reference: publication PMC11924222, “Integrated Study of Fluorescence Enhancement in the Y176H Variant of Cyanobacterial Phytochrome Cph1” (Biochemistry, 2025)
